For the test, the target named is T1, Streptavidin (Streptomyces avidinii, UniProt P22629 37-163, limits assumed).
T1 construct: The same protein was used as APC conjugate (flow cytometry) and on beads (sorting, virus capture); also called Streptavidin-APC; Streptavidin conjugated to Allophycocyanin
Description: flow cytometry, Streptavidin-APC staining of transfected 293T cells. (In flow cytometry, cells or beads pass a laser one at a time.)

No end group written: not given here.

T1 sequence (P22629 37-163 limits assumed): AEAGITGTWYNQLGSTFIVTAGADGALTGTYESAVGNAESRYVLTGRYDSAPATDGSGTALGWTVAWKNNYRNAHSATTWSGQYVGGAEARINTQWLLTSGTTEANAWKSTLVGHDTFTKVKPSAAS

B1: Flankedccstreptag-d8-x2-GPI (other)
chain: ECHPQGPPCIEGRKSSGGGGSPAPRPPTPAPTIASECHPQGPPCIEGRKS
modifications: cysteine pairing not given here; also: GPI anchor at C-terminal side, attached after further residues not given here
notes: Two copies of the tag separated by a CD8-based linker; also called MP13024; Flankedccstreptag GPI (x2); not shown: residues between the second tag and the GPI attachment site
On to B1, for which the binding result is “binds”.

B2: StreptagII-d8-x2 on a GPI anchor (other)
chain: WSHPQFEKSGGGGSPAPRPPTPAPTIASWSHPQFEK
modifications: also: GPI anchor at C-terminal side, attached after further residues not given here
notes: Two copies of the tag separated by a CD8-based linker; expressed on the surface of transfected HEK 293T cells; also called StreptagII GPI (x2); Streptagll-d8-x2; not shown: residues between the second tag and the GPI attachment site
As for B2, the binding result is “binds”.

Values taken from patent publication US20170240920A1 (UCL BUSINESS, published 2017).
